This is an account of results in US20160193292A1.

The target in the test is JNK-interacting protein 1 (JIP-1) (UniProt Q9WVI9). Nature of the test: IP-FCM of lysates from OT-I T cells stimulated with OVA-Tet/α-CD28 in the presence of Tat-POSH vs Tat-cont.; competitor for POSH.
Sequence of JNK-interacting protein 1 (JIP-1) (Q9WVI9 whole entry): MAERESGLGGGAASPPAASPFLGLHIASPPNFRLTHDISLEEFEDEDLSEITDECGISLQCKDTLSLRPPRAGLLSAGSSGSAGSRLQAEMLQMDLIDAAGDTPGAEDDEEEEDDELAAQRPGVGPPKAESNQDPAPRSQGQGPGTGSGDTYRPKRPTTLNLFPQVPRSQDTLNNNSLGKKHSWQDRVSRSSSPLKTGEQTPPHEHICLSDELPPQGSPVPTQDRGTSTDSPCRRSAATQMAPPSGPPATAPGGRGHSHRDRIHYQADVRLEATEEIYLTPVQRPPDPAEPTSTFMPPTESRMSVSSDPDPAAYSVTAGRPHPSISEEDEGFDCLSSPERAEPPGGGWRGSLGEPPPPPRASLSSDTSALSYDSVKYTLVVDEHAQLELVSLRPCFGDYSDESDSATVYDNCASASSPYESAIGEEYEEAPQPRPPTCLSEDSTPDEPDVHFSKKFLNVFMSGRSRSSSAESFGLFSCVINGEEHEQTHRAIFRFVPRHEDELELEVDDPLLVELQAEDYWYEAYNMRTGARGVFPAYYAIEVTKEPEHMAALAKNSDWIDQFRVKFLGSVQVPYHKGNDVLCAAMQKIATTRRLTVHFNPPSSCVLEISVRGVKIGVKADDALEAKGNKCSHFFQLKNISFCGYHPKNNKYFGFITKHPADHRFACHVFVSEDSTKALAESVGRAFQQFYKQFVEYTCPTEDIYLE

As for “Tat-POSH SH3.3 (cell-permeable peptide containing the HIV Tat protein transduction domain fused to the SH3.3 of POSH)”, the percent of POSH/JIP-1 complexes disrupted came to 30%.
